B1: YZ-7 (NF-kb probe) (dsDNA)
DNA 1: TCCTAGCTTCAGAGGGGACTTTCCGAGAGGACCTGAAGAAATGGTTTTGAATCAT
DNA 2: CCTCTCGGAAAGTCCCCTCTGAAGCTAGGA
B2: YZ-11 (ER-alpha probe) (dsDNA)
DNA 1: CCTGCCAGGTCGCGCTGCCCTCCTTCTACCATGCCTTAGGAGAATTGTTTTGTTT
DNA 2: GGTAGAAGGAGGGCAGCGCGACCTGGCAGG

Key:
Sp1 [1] = target: T1, Sp1 (UniProt P08047 P08047:2-785); assay: probe mixture, gel-separated complex hybridised to microarray; signal 0 at the tag-complementary spot Y-14 (Y-7t also 0); room temperature 30 min; conditions: tags: Promega recombinant; label: 5'-Cy3 on YZ-7f (microarray); partially double-stranded, 3' single-strand tag on YZ-7f
T1 sequence (P08047 2-785, one chain of several): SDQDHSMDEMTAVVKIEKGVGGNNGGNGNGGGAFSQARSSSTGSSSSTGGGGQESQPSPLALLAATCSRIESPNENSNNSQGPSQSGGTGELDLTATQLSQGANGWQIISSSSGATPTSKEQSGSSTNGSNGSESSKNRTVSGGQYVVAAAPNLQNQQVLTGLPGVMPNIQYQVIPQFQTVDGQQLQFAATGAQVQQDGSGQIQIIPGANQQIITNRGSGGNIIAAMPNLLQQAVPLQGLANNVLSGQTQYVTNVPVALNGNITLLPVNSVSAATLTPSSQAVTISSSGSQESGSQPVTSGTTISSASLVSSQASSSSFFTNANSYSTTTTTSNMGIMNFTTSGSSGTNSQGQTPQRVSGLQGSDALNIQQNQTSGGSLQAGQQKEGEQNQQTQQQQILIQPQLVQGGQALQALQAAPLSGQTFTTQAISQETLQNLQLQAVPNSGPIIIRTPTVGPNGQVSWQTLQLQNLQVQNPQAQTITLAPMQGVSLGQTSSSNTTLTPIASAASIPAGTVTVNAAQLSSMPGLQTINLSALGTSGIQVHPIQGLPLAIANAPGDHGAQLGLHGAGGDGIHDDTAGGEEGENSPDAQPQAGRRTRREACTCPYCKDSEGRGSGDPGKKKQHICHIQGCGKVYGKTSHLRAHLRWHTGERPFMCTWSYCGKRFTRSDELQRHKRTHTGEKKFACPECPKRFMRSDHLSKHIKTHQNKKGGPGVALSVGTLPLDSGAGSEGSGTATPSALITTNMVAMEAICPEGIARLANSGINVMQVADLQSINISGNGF
Experimental: (§1) The Sp1 protein was mixed with a group of Cy3 labeled probes (YZ-7, YZ-9 and YZ-11) at room temperature for 30 minutes and then the protein/DNA complex was separated on the polyacrylamide column using the separation method described in Example 1. The collected protein/DNA complex was concentrated, the buffer changed to 5×SSC, 0.1% SDS, and the DNA hybridized to a microarray slide containing oligonucleotide DNA sequences shown in Table 2. Small amounts of YZ-2 and YZ-4 were added (shown in Table 3 and complementary to the sequences of YZ-1 and YZ-3). These sequences, shown in Table 3, serve as a positive control and reference signal. Only the Sp1 and control probes yielded positive signals (see Table 4). […] The microarray results (shown in Table 4) was consistent with the result from the gel shift assay.

Sp1 [2] = target: T1, Sp1; assay: probe mixture, gel-separated complex hybridised to microarray; signal 0 at Y-11t; room temperature 30 min; conditions: tags: Promega recombinant; label: IRDye 700 (gel) or 5'-Cy3 on YZ-11f (microarray); partially double-stranded, 3' single-strand tag on YZ-11f
Experimental: as §1

| Binder | binding result (Sp1 [1]) | binding result (Sp1 [2]) |
| --- | --- | --- |
| B1 | no binding |  |
| B2 |  | no binding |

From patent publication US20110011742, “METHOD FOR THE PURIFICATION OF BIOLOGICAL MACROMOLECULES” (published 2011)
